Drawing on publication PMC3245711, this text covers stoichiometry N for one substance.

A word on the stoichiometry N: it is the number of molecules, sites or subunits per partner or assembly.

This assay deals with human KCNJ12 channel (pND-CTFH construct, C-terminal FLAG and octa-histidine tags) (human) (UniProt Q14500). The assay can be described thus: SEC.

Chain of human KCNJ12 channel (pND-CTFH construct, C-terminal FLAG and octa-histidine tags) (Q14500 whole entry): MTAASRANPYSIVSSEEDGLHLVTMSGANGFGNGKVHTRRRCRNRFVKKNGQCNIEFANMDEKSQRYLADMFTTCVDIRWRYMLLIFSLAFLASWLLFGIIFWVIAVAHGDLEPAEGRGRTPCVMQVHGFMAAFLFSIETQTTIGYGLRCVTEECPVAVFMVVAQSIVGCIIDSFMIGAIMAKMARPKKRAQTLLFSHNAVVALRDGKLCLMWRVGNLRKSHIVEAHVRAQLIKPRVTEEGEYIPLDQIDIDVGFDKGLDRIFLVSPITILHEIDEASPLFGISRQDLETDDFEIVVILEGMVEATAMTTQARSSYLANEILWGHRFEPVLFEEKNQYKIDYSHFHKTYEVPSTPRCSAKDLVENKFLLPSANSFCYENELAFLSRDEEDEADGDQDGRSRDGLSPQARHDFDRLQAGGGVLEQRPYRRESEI

“human KCNJ12 channel (pND-CTFH construct, C-terminal FLAG and octa-histidine tags) (from UniProt Q14500 1-433) (natural protein)” returned a stoichiometry N of 4.
